# From the DeepSol protein solubility set
# Test: soluble on expression in E. coli; label from the status in PepcDB or PDB records
row,Sequence,soluble on expression in E. coli
1,MSKSYNQRQRKKLHLAEFQELGFLVNFQFAEGTAIETVDETVDRFINEVIQPNGLAYEGSGYLHWEGLVCLEKIGKCDESHRETVKKWLETNGLQQIEVSELFDIWW,not soluble
2,MSLACGEFSLIARYFDRVRSSRLDVETGIGDDCALLNIPEKQTLAISTDTLVAGNHFLPDIDPADLAYKALAVNLSDLAAMGADPAWLTLALTLPEVDEPWLEAFSDSLFALLNYYDMQLIGGDTTRGPLSMTLGIHGYIPAGRALKRSGAKPGDWIYVTGTPGDSAAGLAVLQNRLQVSEETDAHYLIQRHLRPTPRILHGQALRDIASAAIDLSDGLISDLGHIVKASGCGARVDVDALPKSDAMMRHVDDGQALRWALSGGEDYELCFTVPELNRGALDVAIGQLGVPFTCIGQMSADIEGLNFVRDGMPVTFDWKGYDHFATPEGGSHHHHHH,soluble
3,MSLADDHIYVTSSGGSFLENVRKHMAEPFEKQSGVKVTLVPGTNPAHALKILSSRGTPPYDVAAFGGNDMYRLIRAKKLAQVDEKSVPSLADVPEKFKADWEGCGSLYDYSSVGIAYRPDKIQGGVKSWKEFVERTVAGEFGKQVFFNNLSSNVRGAEVLSMFGKIYGSGYGDIEASIATLERMKPHIFKFFTAFNDPVVLLTSGEGAIGPGWDGRTFIAEDSTKGMVKWVDPTEGAVSSGPVMAVVKGGKEDLAKAFMNYALGEEAQKAFCEAMYYGAVNRKVQYSEKLKHRLPSIDSVQLVDTALLIKNMSALLDLWNKRIASEGHHHHHH,soluble
4,MSLADKAFHTRLINMRRDLHEHPELSFQEVETTKKIRRWLEEEQIEILDVPQLKTGVIAEIKGREDGPVIAIRADIDALPIQEQTNLPFASKVDGTMHACGHDFHTASIIGTAMLLNQRRAELKGTVRFIFQPAEEIAAGARKVLEAGVLNGVSAIFGMHNKPDLPVGTIGVKEGPLMASVDRFEIVIKGKGGHAGIPNNSIDPIAAAGQIISGLQSVVSRNISSLQNAVVSITRVQAGTSWNVIPDQAEMEGTVRTFQKEARQAVPEHMRRVAEGIAAGYGAQAEFKWFPYLPSVQNDGTFLNAASEAAARLGYQTVHAEQSPGGEDFALYQEKIPGFFVWMGTNGTEEWHHPAFTLDEEALTVASQYFAELAVIVLETIKEGGSHHHHHH,soluble
5,MSLADSTELTTSATLGAQDAMAFGISEDPAFFQILSANLYSNQKLAMVRETLCNSWDAHIEGNKTDIPIHVTIDKDGFLIFRDYGSGIPKDKIQEVYGVYGASTKKANTASTGGFGLGCKSPMAYTDSFTVTSMCDGTKTVYHIAKSSVETNGKPGIIPIVSVPTEESGLEVKIQLQSEDILEIDSYIRAIVLHGEIKCIYCNQYTGPNTVELLPVLGMSFEPGSYNLDHSTWHKYYMGGHSIFIRYGNVMYPALDTPATHEALKLVKQFMQVINCSRIVVQAAPSSLAVAPSRETLSSQKMTEDGIVNLAVALVDKMEADIKARLPNAIEYIGKAIKEYSPHRFEVNSYLPYTNLVPDVIVSRYMSSTLFSKQYAHLCKKWGNMEIDRQLEHPALAHFSGEGHHHHHH,soluble
6,MSLADVDTGTLTIKGNIAESPCKFEAGGDSVSINMPTVPTSVFEGKAKYSTYDDAVGVTSSMLKISCPKEVAGVKLSLITNDKITGNDKAIASSNDTVGYYLYLGDNSDVLDVSAPFNIESYKTAEGQYAIPFKAKYLKLTDNSVQSGDVLSSLVMRVAQDEGHHHHHH,soluble
7,MSLAEKKERIRFMTVDDVDAVVRVEEQTFTVPWSREAFINEVTNNQFARYVVYEVGEQIVGYCGVWVVYDESHITNIAIHPDYRGEKRGEALLRYILEFARLLGAKKLSLEVRISNEIAQRLYRKFGFQAGGIRKNYYTDNQEDALVMWVMLSEGHHHHHH,soluble
8,MSLAESQLSKLDVNLQSLNPYTFSKTRCIVNLHISDDTKNRDPSTTNGSYSNSQLLSNGEHVCYHFSQDYCVLSIYPVTDAITGKTVVVHLPHETFNDHHTFTMAEEDGCIVMDLILKTGLFLTLRFSLEYLFNRNADINSSWYSLLKPYDFTVRLPDYLYKVNSALSIVYLNDGGLLGLQKTQTSGSDEYDLHPVLFNDNSYFQSFTRFFSHNDSGRENVVSSVSYGDYHLLTLTENCKLRIWDLRTNSVTAQLNLITDPQDKHRKYESIGPYLALLDSVLVVFLPFGNGAFRTFQLSVNNSGGLVLTPRGELIRTNLSTASIWSLVDTKLTKPFELNIETSYLQMVVLWKSNTSIKLQILNFETEALDKHSWVEASNKSLPDILDNDILGDNFEQSLLDLKAHYTPAIYEEAQRILSANGEGHHHHHH,not soluble
9,MSLAGQIAIVTGASRGIGRGIALQLGEAGATVYITGRKPEESLNSKVGLSGLEATADEITKRGGKGIARFVDHQNMEEVKNFFEVVEKEHQGQLDILVNNAYQGVTAISENMGKPFYETDPYVWDTINNVGLRNHYFCTVYAARLMTARNKGLIVNVSSGGGLRYLFNVAYGVGKQALDRMSADTAVELRKKNVCVVSIWPGAVRTELVDKMFKDENGKPRPEIKNAEVFANGETVEYPGRAVVSLASDPRRMDKTGRILITEDLGKEYGFVDIDGLRPPNLRSVSFILKHLGWNTTANFVPTWVKLPGWLVWAGNSRL,soluble
10,MSLAIEKELLDQLLAGRDPSEVFGKDGLLDDLKKALSERILNAELDDHLDVERLEGGPANRRNGSSKKTVLTGTSKMTLTIPRDRAGTFDPKLIARYQRRFPDFDDKIISMYARGMTVREIQGHLEELYGIDVSPDLISAVTDTVLEAVGEWQNRPLELCYPLVFFDAIRVKIRDEGFVRNKAVYVALAVLADGSKEILGLWIEQTEGAKFWLRVMNELKNRGCQDILIAVVDGLKGFPEAITAVFPQTIVQTCIVHLIRHSLEFVSYKDRRTVVPALRAIYRARDAEAGLKALEAFEEGYWGQKYPAIAQSWRRNWEHVVPFFAFPEGVRRIIYTTNAIEALNSKLRRAVRSRGHFPGDEAAMKLLYLVLNNAAEQWKRAPREWVEAKTQFAVIFGERFFNEGHHHHHH,soluble
11,MSLAKQPIDLLIQPKWRIIDQSSLGPYFDAKQSFAIDDTLCASVGKGLSPATARSWVHHDTIVLGIQDTRLPYLQEGISLLEEAGYQAIVRNSGGLAVVLDSGVLNVSLIFQDKKNGIDIDRGYEAMFELVKRMLSSYDAAIEAYEIKGSYCPGSFDLSIGGRKFAGISQRRLRGGVAVQIYLCADQSGSGRAELIKRFYDTALKDMRGKTKAVYPDIRPETMASLSELLNEDISVQDLMLLLLTQLKELGGEIYQGPLTPAEEEVYEKNLVRMIERNEKVFGEGHHHHHH,soluble
12,MSLALQEQCLWETLTPQRPDRAPLKGELTADVCIIGAGFTGLSAAVHLLEQGKRVCVVEAHRAGHGGSGRNVGLVNAGMWIPPDEIEAGFGEQVGSQLNRMLGAAPSLVFSLVDKYHIDCQLRREGTLHMAHNARGEADLRSREEQWKRRGAPVELLTGAACEAATGTRKIAAALLDRRAGTLNPMAYVSGLARAATELGGRLFDHSPVTRLERQGQRWSVQTEQGSVLAEQVVIASNAYTEGDWTELRRNFFPGYYYQVASAPLTEEAARQILPGGQGSWDTRQVLSSIRRDAEGRLLLGSLGNGSQKPLWFLKAWADRVQQHYFPYLKPVEWECTWTGCIAFTPDHLMRLFEPAPGLVAVTGYNGRGVTTGTVVGKAFADYLCNGDPQALPIPFAAMQPLAGVGLRSCLYEAGFSLYHAGQCLRIVEGHHHHHH,not soluble
13,MSLALYLGNKRMNDMYYTIGQVAKMQHLTISQIRYYDKQGLFPFLQRNEKGDRIFNEEALKYLEMILCLKNTGMPIQKIKQFIDWSMEGDSTILHRLKLMKQQEANVLQLIQDTEKNLKKIQQKIAKYEDEISSANATTKEGHHHHHH,soluble
14,MSLANADTYQPSYSTAGFYQLSNTGRTVYNMNPAWRFYKGNIEGAEQPRFNDKDWNIVSLPDGIEYLPTEASGCINYQGEIWYRKHFTPKESWKGKQQFLHFEAIMGKSKIWVNGKLLKEHFGGFLPVIVDVTSSLKYGEDNVITVWADNSDDPSYPPGKPQDALDFAYFGGIYRDCWMIVHNKVFITDPNYENETAGGGLFVSFDKVSEQSAQLKLDAHIRNTSGKSFSGKIIYELYDRDDKRVLSKETGLSVSKDLAKQISCKVTVETPHLWSPDSPYLYKLHIYIKDKAGNTIDGYYRRIGIRSIEFKGKDGFWLNGKPYPYPLMGANRHQDFAVIGNALPNSLHWRDAKKLRDAGMRVIRNAHYPQDPAFMDACDELGLFVIVNTPGWQFWNDQPIFAQRVYSDIRNMVRRDRNHPSVWMWEPILNETWYPADFAKNVVDILNEEYPYPYCYAGCDVTARGHEYFPIHFTHPMNGGGGAFNTENLDPKISYFTREWGDNVDDWNSHNSPSRVNRGWGEVPMLIQAQGYAKNDYQLTSYDGLYRTSRQHMGGCLWHSFDHQRGYHPDPFYGGIMDAFRQPKLSYYMFCSQRPAEPNKELIADEGHHHHHH,soluble
15,MSLANQPIDLLMQPKWRVIDQSSLGPLFDAKQSFAMDDTLCMSVGKGVSPATARSWVHHDTIVLGIQDTRLPFLQDGISLLESEGYRVIVRNSGGLAVVLDDGVLNISLIFEDEKKGIDIDKGYEAMVELMRRMLRPYNAKIEAYEIEGSYCPGSYDLSINGKKFAGISQRRVRGGVAVQIYLCADKSGSERADLIRRFYQAALKDKQNDKKGVYPEIRPETMASLSELLQKDISVQDLMFALLTELKALSTHLYSAGLSIDEEMEFEKNLVRMAERNAKVFGEGHHHHHH,soluble
16,MSLAQFSVNAQRFDPYKNFKFRIKWDGRYVAGVSKVSALKRTTEVVEHREGGDASNVRKSPGRTKYEPITMERGVTHDTEFEKWANKVWNYGSGMGAEVSLKDFRKDIIIEVYNEAGQLAIAYKVYRCWVSEYQALPELDANANAVAIQSMKLENEGWERDYDIGEPDEPTFTEPQEGHHHHHH,soluble
17,MSLAQYPVIGIDDDEFATAKKLITKQEVRAVTLSKLRLQDDLVMWDIGAGSASVSIEASNLMPNGRIFALERNPQYLGFIRDNLKKFVARNVTLVEAFAPEGLDDLPDPDRVFIGGSGGMLEEIIDAVDRRLKSEGVIVLNAVTLDTLTKAVEFLEDHGYMVEVACVNVAKTKGLTEYKMFESHNPVYIITAWKSDEGHHHHHH,soluble
18,MSLASIRTRIMILSDTHAQRFQPGLEPLEPVDLVIHCGDLTNNSTLRDYREAIHLLDSIKAPLKIVIAGNHDFSLDDKAYRRKIRETCRINQENLSGAIKAEYGQVGEAQQILLEAVAKGITFLSEGPHQLQLPSNSVLELYVSPYTPTHNCPGWGFQYDGIHDFNIKQGTDIVITHGPPLGIMDLTSNNERIGCPQLFAAVARAQPRVHCFGHVHEGWGAKLVSWRPNEGHHHHHH,not soluble
19,MSLASLPISNFFTFNHQSTLFTKVKNFMGVKHIGDCMKALINGTIYTSFSPVKKVSGLVISNERVLYAGDSSTALRIAELAGGEIIDLKGKFVMPAFFDSHLHLDELGMSLEMVDLRGVKSMEELVERVKKGRGRIIFGFGWDQDELGRWPTREDLDVIDRPVFLYRRCFHVAVMNSKMIDLLNLKPSKDFDESTGIVRERALEESRKIINEKILTVKDYKHYIESAQEHLLSLGVHSVGFMSVGEKALKALFELEREGRLKMNVFAYLSPELLDKLEELNLGKFEGRRLRIWGVKLFVDGSLGARTALLSEPYTDNPTTSGELVMNKDEIVEVIERAKPLGLDVAVHAIGDKAVDVALDAFEEAEFSGRIEHASLVRDDQLERIKELKVRISAQPHFIVSDWWIVNRVGEERAKWAYRLKTLSSITKLGFSTDSPIEPADPWVSIDAAVNRYVVDPGERVSREEALHLYTHGSAQVTLAEDLGKLERGFRAEYIILDRDPLKEMKGIITITTDPNSSSVDKLAAALEHHHHHH,soluble
